# *1 amine or outer side, *2 acyl side, *3 side chain or, on linkers, in order; H or OH if unused. Primed or numbered codes have the meaning given here. The star is where a group is joined. C20 diacid = O=C(O)CCCCCCCCCCCCCCCCCCC(=O)*; C18 diacid = O=C(O)CCCCCCCCCCCCCCCCC(=O)*; γGlu = O=C(O)[C@H](CCC(=O)[*:2])N[*:1]; Inp′ = not defined here; AEEA = NCCOCCOCC(=O)O
# B1: calcitonin derivative M63 (peptide)
# peptide: {C20 diacid-γGlu-AEEA-AEEA-AEEA-AEEA}-ASQLSTAVLGRLSEELHRLQDYPRTDVGSGSP-NH2
# SMILES: CC(C)C[C@H](NC(=O)[C@H](CCCNC(=N)N)NC(=O)CNC(=O)[C@H](CC(C)C)NC(=O)[C@@H](NC(=O)[C@H](C)NC(=O)[C@@H](NC(=O)[C@H](CO)NC(=O)[C@H](CC(C)C)NC(=O)[C@H](CCC(N)=O)NC(=O)[C@H](CO)NC(=O)[C@H](C)NC(=O)COCCOCCNC(=O)COCCOCCNC(=O)COCCOCCNC(=O)COCCOCCNC(=O)CC[C@H](NC(=O)CCCCCCCCCCCCCCCCCCC(=O)O)C(=O)O)[C@@H](C)O)C(C)C)C(=O)N[C@@H](CO)C(=O)N[C@@H](CCC(=O)O)C(=O)N[C@@H](CCC(=O)O)C(=O)N[C@@H](CC(C)C)C(=O)N[C@@H](Cc1c[nH]cn1)C(=O)N[C@@H](CCCNC(=N)N)C(=O)N[C@@H](CC(C)C)C(=O)N[C@@H](CCC(N)=O)C(=O)N[C@@H](CC(=O)O)C(=O)N[C@@H](Cc1ccc(O)cc1)C(=O)N1CCC[C@H]1C(=O)N[C@@H](CCCNC(=N)N)C(=O)N[C@H](C(=O)N[C@@H](CC(=O)O)C(=O)N[C@H](C(=O)NCC(=O)N[C@@H](CO)C(=O)NCC(=O)N[C@@H](CO)C(=O)N1CCC[C@H]1C(N)=O)C(C)C)[C@@H](C)O
# B2: calcitonin derivative M16 (peptide)
# peptide: {C20 diacid-γGlu}-ASQLSTAVLGRLSQELHRLQDYPRTDSGSGSP-NH2
# SMILES: CC(C)C[C@H](NC(=O)[C@H](CCCNC(=N)N)NC(=O)CNC(=O)[C@H](CC(C)C)NC(=O)[C@@H](NC(=O)[C@H](C)NC(=O)[C@@H](NC(=O)[C@H](CO)NC(=O)[C@H](CC(C)C)NC(=O)[C@H](CCC(N)=O)NC(=O)[C@H](CO)NC(=O)[C@H](C)NC(=O)CC[C@H](NC(=O)CCCCCCCCCCCCCCCCCCC(=O)O)C(=O)O)[C@@H](C)O)C(C)C)C(=O)N[C@@H](CO)C(=O)N[C@@H](CCC(N)=O)C(=O)N[C@@H](CCC(=O)O)C(=O)N[C@@H](CC(C)C)C(=O)N[C@@H](Cc1c[nH]cn1)C(=O)N[C@@H](CCCNC(=N)N)C(=O)N[C@@H](CC(C)C)C(=O)N[C@@H](CCC(N)=O)C(=O)N[C@@H](CC(=O)O)C(=O)N[C@@H](Cc1ccc(O)cc1)C(=O)N1CCC[C@H]1C(=O)N[C@@H](CCCNC(=N)N)C(=O)N[C@H](C(=O)N[C@@H](CC(=O)O)C(=O)N[C@@H](CO)C(=O)NCC(=O)N[C@@H](CO)C(=O)NCC(=O)N[C@@H](CO)C(=O)N1CCC[C@H]1C(N)=O)[C@@H](C)O
# B3: calcitonin derivative M64 (peptide)
# peptide: {C20 diacid-γGlu-AEEA-AEEA-AEEA-AEEA-AEEA-AEEA}-ASQLSTAVLGRLSEELHRLQDYPRTDVGSGSP-NH2
# SMILES: CC(C)C[C@H](NC(=O)[C@H](CCCNC(=N)N)NC(=O)CNC(=O)[C@H](CC(C)C)NC(=O)[C@@H](NC(=O)[C@H](C)NC(=O)[C@@H](NC(=O)[C@H](CO)NC(=O)[C@H](CC(C)C)NC(=O)[C@H](CCC(N)=O)NC(=O)[C@H](CO)NC(=O)[C@H](C)NC(=O)COCCOCCNC(=O)COCCOCCNC(=O)COCCOCCNC(=O)COCCOCCNC(=O)COCCOCCNC(=O)COCCOCCNC(=O)CC[C@H](NC(=O)CCCCCCCCCCCCCCCCCCC(=O)O)C(=O)O)[C@@H](C)O)C(C)C)C(=O)N[C@@H](CO)C(=O)N[C@@H](CCC(=O)O)C(=O)N[C@@H](CCC(=O)O)C(=O)N[C@@H](CC(C)C)C(=O)N[C@@H](Cc1c[nH]cn1)C(=O)N[C@@H](CCCNC(=N)N)C(=O)N[C@@H](CC(C)C)C(=O)N[C@@H](CCC(N)=O)C(=O)N[C@@H](CC(=O)O)C(=O)N[C@@H](Cc1ccc(O)cc1)C(=O)N1CCC[C@H]1C(=O)N[C@@H](CCCNC(=N)N)C(=O)N[C@H](C(=O)N[C@@H](CC(=O)O)C(=O)N[C@H](C(=O)NCC(=O)N[C@@H](CO)C(=O)NCC(=O)N[C@@H](CO)C(=O)N1CCC[C@H]1C(N)=O)C(C)C)[C@@H](C)O
# B4: calcitonin derivative M15 (peptide)
# peptide: {C20 diacid-γGlu}-ASQLSTAVLGRLSQELHRLQDYPRTQVGSGSP-NH2
# SMILES: CC(C)C[C@H](NC(=O)[C@H](CCCNC(=N)N)NC(=O)CNC(=O)[C@H](CC(C)C)NC(=O)[C@@H](NC(=O)[C@H](C)NC(=O)[C@@H](NC(=O)[C@H](CO)NC(=O)[C@H](CC(C)C)NC(=O)[C@H](CCC(N)=O)NC(=O)[C@H](CO)NC(=O)[C@H](C)NC(=O)CC[C@H](NC(=O)CCCCCCCCCCCCCCCCCCC(=O)O)C(=O)O)[C@@H](C)O)C(C)C)C(=O)N[C@@H](CO)C(=O)N[C@@H](CCC(N)=O)C(=O)N[C@@H](CCC(=O)O)C(=O)N[C@@H](CC(C)C)C(=O)N[C@@H](Cc1c[nH]cn1)C(=O)N[C@@H](CCCNC(=N)N)C(=O)N[C@@H](CC(C)C)C(=O)N[C@@H](CCC(N)=O)C(=O)N[C@@H](CC(=O)O)C(=O)N[C@@H](Cc1ccc(O)cc1)C(=O)N1CCC[C@H]1C(=O)N[C@@H](CCCNC(=N)N)C(=O)N[C@H](C(=O)N[C@@H](CCC(N)=O)C(=O)N[C@H](C(=O)NCC(=O)N[C@@H](CO)C(=O)NCC(=O)N[C@@H](CO)C(=O)N1CCC[C@H]1C(N)=O)C(C)C)[C@@H](C)O
# B5: calcitonin derivative M30 (peptide)
# peptide: {C20 diacid-γGlu}-SSQLSTAVLGRLSQELHRLQDYPRTDVGSGSP-NH2
# SMILES: CC(C)C[C@H](NC(=O)[C@H](CCCNC(=N)N)NC(=O)CNC(=O)[C@H](CC(C)C)NC(=O)[C@@H](NC(=O)[C@H](C)NC(=O)[C@@H](NC(=O)[C@H](CO)NC(=O)[C@H](CC(C)C)NC(=O)[C@H](CCC(N)=O)NC(=O)[C@H](CO)NC(=O)[C@H](CO)NC(=O)CC[C@H](NC(=O)CCCCCCCCCCCCCCCCCCC(=O)O)C(=O)O)[C@@H](C)O)C(C)C)C(=O)N[C@@H](CO)C(=O)N[C@@H](CCC(N)=O)C(=O)N[C@@H](CCC(=O)O)C(=O)N[C@@H](CC(C)C)C(=O)N[C@@H](Cc1c[nH]cn1)C(=O)N[C@@H](CCCNC(=N)N)C(=O)N[C@@H](CC(C)C)C(=O)N[C@@H](CCC(N)=O)C(=O)N[C@@H](CC(=O)O)C(=O)N[C@@H](Cc1ccc(O)cc1)C(=O)N1CCC[C@H]1C(=O)N[C@@H](CCCNC(=N)N)C(=O)N[C@H](C(=O)N[C@@H](CC(=O)O)C(=O)N[C@H](C(=O)NCC(=O)N[C@@H](CO)C(=O)NCC(=O)N[C@@H](CO)C(=O)N1CCC[C@H]1C(N)=O)C(C)C)[C@@H](C)O
# Target: T1, human amylin receptor (AMY3) on CHO-K1/Gal5/AMY3 cells (human, UniProt P30988 25-474; O60896 24-148)
# T1 sequence (looked up) 1: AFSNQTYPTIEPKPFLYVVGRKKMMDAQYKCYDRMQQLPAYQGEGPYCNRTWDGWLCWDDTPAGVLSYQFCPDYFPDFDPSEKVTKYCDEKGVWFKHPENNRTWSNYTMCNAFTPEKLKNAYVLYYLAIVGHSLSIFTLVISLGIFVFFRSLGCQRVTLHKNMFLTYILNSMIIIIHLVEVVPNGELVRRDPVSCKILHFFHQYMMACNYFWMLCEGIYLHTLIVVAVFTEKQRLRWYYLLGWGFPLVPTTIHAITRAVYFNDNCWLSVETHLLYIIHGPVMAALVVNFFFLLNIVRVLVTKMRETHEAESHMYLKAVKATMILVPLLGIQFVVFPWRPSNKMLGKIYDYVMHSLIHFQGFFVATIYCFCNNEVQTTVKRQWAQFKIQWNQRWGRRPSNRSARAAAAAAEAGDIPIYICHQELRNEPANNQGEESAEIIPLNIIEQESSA
# T1 sequence (looked up) 2: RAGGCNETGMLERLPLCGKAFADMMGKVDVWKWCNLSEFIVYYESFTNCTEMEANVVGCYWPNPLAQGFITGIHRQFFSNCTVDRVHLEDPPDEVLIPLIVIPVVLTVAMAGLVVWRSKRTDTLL
# Assay: cell-based or functional assay
row,Binder,"EC50/nM, CRE-luciferase in amylin receptor/CRE-luc CHO cells"
1,B1,0.037 nM
2,B2,0.025 nM
3,{C18 diacid-Inp′}-ASQLSTAVLGRLSDELHRLQDYPRTDVGSGSP-NH2 [calcitonin derivative M48],0.063 nM
4,B3,0.044 nM
5,B4,0.016 nM
6,B5,0.017 nM

# Reference: patent EP4692114A1, “CALCITONIN ANALOGUE, AND DERIVATIVE THEREOF AND USE THEREOF” (Hangzhou Sciwind Biosciences Co., Ltd., priority 2023, dated 2024)
